B1: C-5: deletion of the 5 carboxy terminal amino acids of mature lacritin (SEQ ID NO:10) (protein, listed as Homo sapiens)
chain: EDASSDSTGADPAQEAGTSKPNEEISGPAEPASPPETTTTAQETSAAAVQGTAKVTSSRQELNPLKSIVEKSILLTEQALAKAGKGMHGGVPGGKQFIENGSEFAQKLLKKFSL
B2: C-25: deletion of the 25 carboxy terminal amino acids of mature lacritin (SEQ ID NO:10) (protein)
chain: EDASSDSTGADPAQEAGTSKPNEEISGPAEPASPPETTTTAQETSAAAVQGTAKVTSSRQELNPLKSIVEKSILLTEQALAKAGKGMHGGVPGG
modifications: homo sapiens

How the values were obtained:
[1] = tested on: human salivary ductal (HSG) cells; assay: 3H-thymidine uptake mitogenesis assay; type: cell-based; conditions: 10 nM; compared to intact lacritin
Protocol: (§1) For phosphotyrosine blotting and mitogenesis assays, cells in serum-containing media were seeded overnight in 24-well plates at a density of 0.5×10^5 cells/mm^2 corresponding to 20-30% confluency after cell attachment, incubated in serum-free media without supplements for 24 h (phosphotyrosine) or washed with serum-free media without supplements three times (mitogenesis) and incubated with lacritin (1-1000 nM), or positive controls EGF (1.6 nM) and 10% fetal bovine serum, or negative controls bovine serum albumin or no additive in serum-free media without supplements for the indicated times (phosphotyrosine) or 30 h (mitogenesis). For phosphotyrosine assays, cells were extracted in 1% NP40 containing sodium vanadate (2 mg/ml), DTT (5 mg/ml), protease inhibitors, 50 mM HEPES, 100 mM NaCl, and 2 mM EDTA; then separated by 10% SDS PAGE, transferred and blotted. The following antibodies (Cell Signaling Technology, Beverly Mass.) were tested: antiphosphotyrosine antibody (P-Tyr-100), anti-phospho-PKC αβII, anti-PKCα, anti-phospho-PKCδ, anti-phospho-PKC (pan), anti-p44/42 MAPK, anti-phospho-Raf, anti-phospho-SAPK/JNK, anti-phospho-p38 Map kinase, anti-phospho-Raf, anti-phospho-Akt, anti-phospho-CaMKII, anti-phospho-MARCKS, or anti-tubulin (loading control). After washing, bound antibodies were detected with peroxidase-labeled secondary antibody and ECL. With the exception of at least nine proteins in the P-Tyr-100 blot (FIG. 1), none of the effectors tested above appeared to be phospho-activated during lacritin signaling (not shown). For mitogenesis (Hussaini et al., '00), [^3H]-thymidine (2 mCi/ml) was added for the next 6 h. Incorporation was stopped with ice-cold phosphate buffered saline and followed by addition of cold and then room temperature trichloracetic acid (10%) for 10 min each, washing of cells with phosphate buffered saline, solubilization with 1 N sodium hydroxide, neutralization with 1 N hydrochloric acid, addition of scintillation fluid and then quantitation in a scintillation counter. To deplete PKCα in HSG cells, a pool of four PKCα-specific siRNAs (100 nM) were transfected via LipofectAMINE 2000 in Opti-MEMI Reduced Serum Medium (Invitrogen, Grand Island N.Y.) without serum and antibiotics according to manufacturer's instructions. Each of the four siRNAs was also individually transfected. In negative controls, cells were transfected with a pool of four lamin-specific siRNAs (Upstate LLC, Charlottesville Va.; Dharmacon Inc, Lafayette Colo.). Seventy-two hours post-transfection, mitogenesis was assessed by co-addition of 10 […] lacritin and [^3H]-thymidine (2 mCi/ml) (Amersham, Piscataway N.J.) for 24 hrs. PKCα depletion was confirmed by Western blotting.

[2] = tested on: human corneal epithelial (HCE) cell line; assay: TNF-α-induced cell death in HCE cells (MTT cell viability); type: cell-based; conditions: 18 or 30 hours; FIG. 10
Protocol: (§2) Lacritin-induced proliferation and calcium signaling was studied in the human corneal epithelial (HCE) cell line. HCE cells were grown at 37° C. in DMEM F/12 supplemented with 10% FBS and 50 μg/ml gentamicin. Each experiment was done in a dose- and time-dependent manner using TNF-α (5-20 ng/ml) and lacritin (1-10 nM). Cell viability was measured spectrophotometrically at an absorbance of 570 nm using the MTT assay. Caspase-8 activity was detected fluorometrically by measuring cleavage of the fluorogenic substrate IETD-pNA at an excitation wavelength of 405 nm. Lacritin-induced cell proliferation was studied by H3-thymidine incorporation and via fluorescence-based detection of PKC, PLC and cAMP. Calcium signaling was detected by confocal microscopy of Fluo-4 loaded cells.

caspase-8 = assay: Caspase-8 activity in human corneal epithelial cells treated with TNF-α; type: cell-based
Protocol: FIG. 12 graphically illustrates the ability of lacritin polypeptides to block TNFα induced caspase-8 activity in human corneal epithelial cells. The ordinate represents relative fluorescence units. White bars indicate 1 hour and diagonally-hatched bars indicate 6 hours.
as §2

caspase-9 = assay: Caspase-9 activity in human corneal epithelial cells treated with TNF-α; type: cell-based; conditions: lacritin polypeptides 10 nM
Protocol: FIG. 13 graphically illustrates the ability of lacritin polypeptides (10 nM) to block TNFα induced caspase-9 activity in human corneal epithelial cells. The ordinate represents relative fluorescence units. White bars indicate 6 hours and diagonally-hatched bars indicate 9 hours.
Caspase-9 activity was measured in cells treated with various combinations of TNF-α, fragments of lacritin, and the PKC inhibitor Go6976. […] The PKC-α inhibitor Go6976 and C-25 fail to block this increase of the downstream initiator caspase-9.

PKCα [3] = assay: PKCα translocation in HSG cells (immunofluorescence, fractionation); type: cell-based, human; conditions: 15 min after treatment
Source text: In order to dissect the molecular pathways leading to the cell survival by lacritin, protein kinases and transcriptional factors were studied by Western blotting and immunofluorescence microscopy.
Images were acquired at 2-3 s intervals using LaserSharp2000 software (Bio-Rad) and store on disc for later analysis.

NFATC1 = NFATC1 translocation in HSG cells (immunofluorescence); type: cell-based, human; conditions: HSG and corneal epithelial cells
Source text: In order to dissect the molecular pathways leading to the cell survival by lacritin, protein kinases and transcriptional factors were studied by Western blotting and immunofluorescence microscopy. […] On the other hand, there were increased activities of transcriptional factors such as nuclear factor of activated T-cells (NFAT) and NF-kappaB. In FIG. 4, translocation of PKC alpha and NFAT was detected by immunofluorescence coupled with confocal microscopic imaging. In resting HSG cells (left three images), PKC alpha distributes mainly in cytosol and membrane. Similarly, NFATc1 was also found to localize largely in cytosol. Cellular co-location of PKC alpha and NFATc1 is apparent upon merging the two immunofluorescent images, as the merged cy3 and FITC labels produce distinctive yellow color.
Images were acquired at 2-3 s intervals using LaserSharp2000 software (Bio-Rad) and store on disc for later analysis. For translocation assays, HSG cells […] phorbol 12-myristate 13-acetate, […], then washed with phosphate-buffered saline, formaldehyde-fixed, blocked with phosphate-buffered saline containing 1% bovine serum albumin and 10% goat serum, incubated with anti-PKCα (C-20) or anti-NFATC1 (mab 7A6) (both from Santa Cruz Biotechnology Inc.; Santa Cruz, Calif.) followed by secondary Cy3-, FITC- or Alexa488-labeled antibodies and confocal microscopic visualization (Bio-Rad Radiance2100).

PKCα [4] = assay: Phospho-PKCα blot of HSG cell lysates; type: cell-based, human
Protocol: as §1
We imaged PKCα in cells 15 min after treatment (FIG. 8). Nonmitogenic construct/fragment C-25 (10 nM) had no effect, leaving PKCa diffusely distributed throughout the cytoplasm. […] The phosphorylation state of PKCα influences its translocation site. Hyperphosphorylated PKCα becomes associated with the plasma membrane whereas hypophosphorylated or dephosphorylated PKCα is known to translocate to the perinuclear Golgi region. To determine if the latter is true and if so over what time course, we treated cells with lacritin, N-24 and C-25, and then blotted cell lysates for phospho-PKC ? (FIG. 8B). 10 nM lacritin promotes PKC ? dephosphorylation within 1 min of addition. This form is sustained for at least 15 min, but by 30 min has returned to baseline phosphorylation. Dephosphorylation triggered by increasing molar levels of lacritin or N-24 mirrored the proliferation response with optimal dephosphorylation at 10 nM. Non-mitogenic C-25 had no effect, whereas positive control 4β-phorbol 12-myristate 13-acetate-promoted hyperphosphorylation.

caspase-3 = assay: Caspase-3 activity in human corneal epithelial cells treated with TNF; type: cell-based; conditions: FIG. 11
Protocol: FIG. 11 graphically illustrates the ability of lacritin and fragments of lacritin to inhibit the ability of tumor necrosis factor (TNF) to regulate caspase-3 activity in human corneal epithelial cells. Go6976 is an inhibitor of protein kinase C. The ordinate represents relative fluorescence units. White bars indicate 3 hours and diagonally-hatched bars indicate 6 hours.
as §2

MUC16 = MUC16 blot of human corneal epithelial cells; type: cell-based; conditions: 10 nM
Source text: MUC16 is an important mucin on the ocular surface. Mucin contributes to the tear film, is important for wetting the ocular surface, and is reduced in Sjogren's syndrome patients. […] Cells were blotted for MUC16.

Molecule	mitogenic activity of deletion constructs [1]	protection from TNF-induced cell death (viability) [2]	effect on TNF-α-induced caspase-8 activity (caspase-8)	effect on TNF-α-induced caspase-9 activity (caspase-9)	PKCα translocation (PKCα [3])	NFATC1 translocation (NFATC1)	effect on PKCα phosphorylation (PKCα [4])	protection from cell death by TNF (caspase-3 activity) (caspase-3)	MUC16 secretion (MUC16)
B1	active	protect	blocked	blocked					
B2	inactive	no effect on viability loss	fail to block	fail to block	had no effect	had no effect	had no effect	do not protect	inactive

Reference: patent US7648964B2, “Use of lacritin in promoting ocular cell survival” (University of Virginia Patent Foundation, priority 2004, dated 2010)
